# Legend:
# [1] = test system: AncSZ; experiment: phosphorylation enrichment, bacterial display (enrichment ratio); higher = better substrate or ligand; peptides without Tyr show the background
# [2] = target: EPHB1 (UniProt P54762); experiment: as above
# [3] = target: EPHB2 (UniProt P29323); experiment: as above
# [4] = target: FGFR1 (UniProt P11362); experiment: as above
# [5] = target: FGFR3 (UniProt P22607); experiment: as above
# [6] = test system: Fer (mouse); experiment: as above
# [7] = target: Fes (UniProt P07332); experiment: as above
# [8] = target: Fyn (UniProt P06241); experiment: as above
# [9] = target: Hck (UniProt P08631); experiment: as above
# [10] = target: Jak2 (UniProt O60674); experiment: as above
# [11] = target: MERTK (UniProt Q12866); experiment: as above
# [12] = test system: c-Abl (mouse); experiment: as above
# [13] = test system: c-Src; experiment: as above
# [14] = target: Grb2 SH2 (UniProt P62993); experiment: SH2 binding enrichment of the phosphorylated peptide, bacterial display (enrichment ratio); higher = better substrate or ligand; peptides without Tyr show the background
# [15] = target: SHP2-C SH2; experiment: as above
# [16] = target: c-Src SH2; experiment: as above
# 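Wherever SH2 binding enrichment of the phosphorylated peptide, bacterial display is given: peptide library displayed on the E. coli surface as eCPX fusions, selected cells deep-sequenced, score is each peptide's frequency after selection divided by its frequency in the input.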
# 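Wherever phosphorylation enrichment, bacterial display is given: 11-residue human phosphosite peptides and single-mutation variants displayed on the E. coli surface, counted by deep sequencing, each peptide's frequency after selection divided by its frequency in the unselected input library; frequency after pTyr selection over input frequency; kinase dosed for 20-30% of maximal phosphorylation in three min.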
# Sequence of Jak2 (O60674 whole entry, looked up): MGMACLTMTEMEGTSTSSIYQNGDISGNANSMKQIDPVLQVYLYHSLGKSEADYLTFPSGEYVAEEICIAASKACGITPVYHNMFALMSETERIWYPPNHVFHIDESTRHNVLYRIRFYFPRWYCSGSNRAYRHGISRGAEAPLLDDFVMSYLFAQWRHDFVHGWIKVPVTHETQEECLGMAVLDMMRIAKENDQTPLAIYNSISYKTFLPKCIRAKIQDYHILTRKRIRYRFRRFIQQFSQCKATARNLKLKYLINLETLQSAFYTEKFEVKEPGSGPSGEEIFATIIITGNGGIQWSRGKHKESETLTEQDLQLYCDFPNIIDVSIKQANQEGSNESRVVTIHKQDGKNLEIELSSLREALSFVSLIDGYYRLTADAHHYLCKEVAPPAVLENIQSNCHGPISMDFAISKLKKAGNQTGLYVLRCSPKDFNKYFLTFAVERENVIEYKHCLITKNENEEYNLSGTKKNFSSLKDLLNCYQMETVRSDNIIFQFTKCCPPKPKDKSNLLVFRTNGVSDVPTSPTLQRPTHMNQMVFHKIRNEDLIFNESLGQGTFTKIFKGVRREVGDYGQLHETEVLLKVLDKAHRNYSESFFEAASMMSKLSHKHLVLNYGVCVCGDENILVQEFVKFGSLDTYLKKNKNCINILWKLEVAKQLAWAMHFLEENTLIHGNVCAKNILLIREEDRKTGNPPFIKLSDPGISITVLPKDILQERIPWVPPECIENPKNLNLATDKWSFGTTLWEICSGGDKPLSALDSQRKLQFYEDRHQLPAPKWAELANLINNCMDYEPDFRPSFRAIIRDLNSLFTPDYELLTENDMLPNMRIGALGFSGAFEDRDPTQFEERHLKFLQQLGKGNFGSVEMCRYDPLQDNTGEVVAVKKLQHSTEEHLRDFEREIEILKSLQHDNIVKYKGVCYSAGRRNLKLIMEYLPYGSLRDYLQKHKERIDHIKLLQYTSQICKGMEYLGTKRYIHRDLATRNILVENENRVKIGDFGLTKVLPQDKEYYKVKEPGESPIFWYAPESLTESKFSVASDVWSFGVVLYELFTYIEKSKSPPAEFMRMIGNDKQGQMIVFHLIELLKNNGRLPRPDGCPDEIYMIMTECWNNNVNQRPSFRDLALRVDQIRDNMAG
# Sequence of FGFR3 (P22607 whole entry, looked up): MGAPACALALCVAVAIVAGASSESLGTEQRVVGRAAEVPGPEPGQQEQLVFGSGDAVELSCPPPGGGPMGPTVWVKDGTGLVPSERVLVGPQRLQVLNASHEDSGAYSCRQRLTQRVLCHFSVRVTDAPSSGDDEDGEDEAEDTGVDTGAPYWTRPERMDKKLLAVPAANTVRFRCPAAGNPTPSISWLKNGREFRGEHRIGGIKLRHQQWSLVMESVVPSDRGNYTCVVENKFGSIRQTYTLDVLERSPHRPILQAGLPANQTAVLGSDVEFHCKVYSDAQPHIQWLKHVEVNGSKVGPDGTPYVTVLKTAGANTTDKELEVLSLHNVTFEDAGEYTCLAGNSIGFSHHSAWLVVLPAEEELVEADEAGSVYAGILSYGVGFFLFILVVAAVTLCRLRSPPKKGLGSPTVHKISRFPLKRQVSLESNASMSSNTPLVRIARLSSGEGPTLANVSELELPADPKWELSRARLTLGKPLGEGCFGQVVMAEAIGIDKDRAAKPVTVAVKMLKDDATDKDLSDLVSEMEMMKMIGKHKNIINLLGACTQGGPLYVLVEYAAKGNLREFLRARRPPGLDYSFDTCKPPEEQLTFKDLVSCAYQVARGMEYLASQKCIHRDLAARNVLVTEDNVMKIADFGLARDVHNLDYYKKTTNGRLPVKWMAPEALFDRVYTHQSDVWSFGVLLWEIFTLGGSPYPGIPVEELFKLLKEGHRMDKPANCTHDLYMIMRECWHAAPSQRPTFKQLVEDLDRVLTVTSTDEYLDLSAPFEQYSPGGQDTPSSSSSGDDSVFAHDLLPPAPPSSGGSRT
# Sequence of EPHB1 (P54762 whole entry, looked up): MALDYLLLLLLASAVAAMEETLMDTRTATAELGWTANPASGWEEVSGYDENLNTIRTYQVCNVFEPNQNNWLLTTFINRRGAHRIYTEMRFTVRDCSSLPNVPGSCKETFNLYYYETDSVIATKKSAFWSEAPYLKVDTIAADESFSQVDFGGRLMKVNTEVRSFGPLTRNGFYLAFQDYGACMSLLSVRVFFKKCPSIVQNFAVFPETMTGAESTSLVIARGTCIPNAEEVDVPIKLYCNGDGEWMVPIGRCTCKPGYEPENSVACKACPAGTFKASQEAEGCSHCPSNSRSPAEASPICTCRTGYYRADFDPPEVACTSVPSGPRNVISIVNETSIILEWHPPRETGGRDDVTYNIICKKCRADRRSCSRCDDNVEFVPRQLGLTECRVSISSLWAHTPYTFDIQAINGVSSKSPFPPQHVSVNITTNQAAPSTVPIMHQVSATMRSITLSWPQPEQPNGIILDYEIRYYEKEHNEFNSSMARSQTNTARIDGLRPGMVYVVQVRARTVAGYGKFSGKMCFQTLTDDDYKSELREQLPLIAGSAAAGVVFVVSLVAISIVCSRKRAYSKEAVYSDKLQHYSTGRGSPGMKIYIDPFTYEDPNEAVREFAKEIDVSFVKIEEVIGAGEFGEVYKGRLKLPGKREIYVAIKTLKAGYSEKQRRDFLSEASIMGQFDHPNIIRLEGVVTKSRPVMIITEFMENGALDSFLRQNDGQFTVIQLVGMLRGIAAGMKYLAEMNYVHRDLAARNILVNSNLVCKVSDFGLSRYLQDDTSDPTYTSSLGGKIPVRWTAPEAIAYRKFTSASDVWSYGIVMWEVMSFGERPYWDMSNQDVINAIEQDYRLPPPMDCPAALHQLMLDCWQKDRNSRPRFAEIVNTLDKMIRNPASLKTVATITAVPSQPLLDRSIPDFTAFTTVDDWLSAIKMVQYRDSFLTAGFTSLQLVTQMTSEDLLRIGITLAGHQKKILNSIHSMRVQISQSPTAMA
# Sequence of Hck (P08631 whole entry, looked up): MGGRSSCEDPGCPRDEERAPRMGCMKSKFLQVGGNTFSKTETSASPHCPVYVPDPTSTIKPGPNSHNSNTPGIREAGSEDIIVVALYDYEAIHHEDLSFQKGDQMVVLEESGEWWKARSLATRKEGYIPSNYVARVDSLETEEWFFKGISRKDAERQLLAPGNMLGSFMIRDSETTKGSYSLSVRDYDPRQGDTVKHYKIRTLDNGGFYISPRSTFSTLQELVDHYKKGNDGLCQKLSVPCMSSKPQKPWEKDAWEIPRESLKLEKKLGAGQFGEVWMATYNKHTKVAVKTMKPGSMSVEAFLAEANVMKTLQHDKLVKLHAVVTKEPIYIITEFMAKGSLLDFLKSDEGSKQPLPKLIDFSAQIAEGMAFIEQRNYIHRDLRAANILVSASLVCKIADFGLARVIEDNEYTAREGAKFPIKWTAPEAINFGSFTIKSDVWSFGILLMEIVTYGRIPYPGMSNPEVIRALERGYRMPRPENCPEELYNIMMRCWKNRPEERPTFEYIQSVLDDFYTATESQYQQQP
# Sequence of MERTK (Q12866 whole entry, looked up): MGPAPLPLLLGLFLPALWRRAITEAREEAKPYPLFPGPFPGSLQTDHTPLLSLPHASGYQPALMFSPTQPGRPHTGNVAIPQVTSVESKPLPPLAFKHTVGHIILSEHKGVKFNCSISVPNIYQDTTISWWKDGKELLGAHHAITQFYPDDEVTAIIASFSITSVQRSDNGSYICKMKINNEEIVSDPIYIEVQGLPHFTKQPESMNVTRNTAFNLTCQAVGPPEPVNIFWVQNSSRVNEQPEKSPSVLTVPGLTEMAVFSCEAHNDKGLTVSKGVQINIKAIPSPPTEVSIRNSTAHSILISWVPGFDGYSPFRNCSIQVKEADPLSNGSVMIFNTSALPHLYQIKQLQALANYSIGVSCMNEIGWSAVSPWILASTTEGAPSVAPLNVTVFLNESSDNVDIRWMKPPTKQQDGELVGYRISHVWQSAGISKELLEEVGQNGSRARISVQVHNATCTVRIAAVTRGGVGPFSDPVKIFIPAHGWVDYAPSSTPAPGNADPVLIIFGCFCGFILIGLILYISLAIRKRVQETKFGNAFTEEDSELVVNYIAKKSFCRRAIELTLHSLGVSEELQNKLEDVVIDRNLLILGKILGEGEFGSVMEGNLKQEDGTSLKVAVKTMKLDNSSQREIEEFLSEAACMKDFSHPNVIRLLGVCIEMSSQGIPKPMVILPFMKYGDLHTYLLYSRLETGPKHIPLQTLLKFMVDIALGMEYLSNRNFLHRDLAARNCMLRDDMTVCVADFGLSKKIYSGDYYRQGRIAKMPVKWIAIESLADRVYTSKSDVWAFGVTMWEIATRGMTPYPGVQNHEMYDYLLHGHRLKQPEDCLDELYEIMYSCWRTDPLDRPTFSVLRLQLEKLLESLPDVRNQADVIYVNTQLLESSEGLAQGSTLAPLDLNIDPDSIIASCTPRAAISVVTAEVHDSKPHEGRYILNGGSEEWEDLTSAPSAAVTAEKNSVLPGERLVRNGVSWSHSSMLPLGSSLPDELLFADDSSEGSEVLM
# Sequence of Fyn (P06241 whole entry, looked up): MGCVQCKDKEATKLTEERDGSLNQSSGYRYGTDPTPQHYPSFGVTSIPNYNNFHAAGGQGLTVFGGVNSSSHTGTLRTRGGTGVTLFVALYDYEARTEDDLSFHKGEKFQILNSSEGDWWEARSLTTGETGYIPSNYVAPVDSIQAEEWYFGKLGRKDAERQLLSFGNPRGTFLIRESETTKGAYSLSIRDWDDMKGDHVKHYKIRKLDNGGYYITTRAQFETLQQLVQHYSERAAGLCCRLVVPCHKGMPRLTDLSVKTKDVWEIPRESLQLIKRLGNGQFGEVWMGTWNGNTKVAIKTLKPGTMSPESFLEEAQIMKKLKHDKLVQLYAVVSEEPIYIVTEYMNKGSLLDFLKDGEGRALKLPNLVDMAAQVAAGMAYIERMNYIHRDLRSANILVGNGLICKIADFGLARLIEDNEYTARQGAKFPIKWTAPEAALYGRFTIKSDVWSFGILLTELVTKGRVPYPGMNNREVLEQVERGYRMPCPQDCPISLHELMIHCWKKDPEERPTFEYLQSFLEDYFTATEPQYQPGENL
SH2 binding enrichment [14],SH2 binding enrichment [15],SH2 binding enrichment [16],Sequence,phosphorylation enrichment [1],phosphorylation enrichment [2],phosphorylation enrichment [3],phosphorylation enrichment [4],phosphorylation enrichment [5],phosphorylation enrichment [6],phosphorylation enrichment [7],phosphorylation enrichment [8],phosphorylation enrichment [9],phosphorylation enrichment [10],phosphorylation enrichment [11],phosphorylation enrichment [12],phosphorylation enrichment [13]
1.16,0.878,0.512,PPGRSYSPFDF [TNS1_Y793_YF],0.824,0.4,0.599,0.505,0.75,1.1,0.81,0.635,0.6,0.843,0.598,0.602,0.497
0.971,0.731,1.94,VATRWYWSPEL [CDKL5_Y177_R178W],1.06,4.61,3.81,5.92,5.13,0.512,1.15,0.464,0.532,1.14,6.3,0.771,0.647
0.894,0.861,4.23,VIESSYTSADG [DHCR7_Y382_C380S],0.892,0.468,0.596,0.531,0.627,0.519,0.961,0.551,0.476,0.873,0.596,0.618,0.546
0.84,0.689,0.491,GDYLSYREFHL [ERBIN_Y1107_S1112L],1.8,16.4,22.7,5.4,3.96,0.79,0.809,3.1,2.45,1.53,0.478,15.7,2.46
0.753,0.631,0.405,PRDGEYFTLQI [TP53_Y327_L323R],2.81,1.31,1.19,11.7,8.55,0.775,1.38,2.55,2.14,3.26,0.93,1.75,3.76
0.813,0.612,0.487,YSKDIYKRVTG [PANK2_Y405_N404I],0.5,0.38,0.419,0.409,0.342,0.551,0.51,0.415,0.487,0.447,0.401,0.435,0.394
0.673,0.89,0.703,IDAICYFRMEN [NPHS2_Y194_YF],1.26,0.692,0.623,0.656,0.949,0.484,1.59,0.572,0.612,2.44,0.556,0.974,0.613
1.08,0.961,0.637,KDHPDYKYPPR [SOX10_Y171_Q174P],0.612,0.355,0.392,0.549,0.522,0.345,0.601,0.438,0.381,0.462,0.331,0.515,0.4
1.93,1.66,1.43,KKYFSYAWPFY [BRDT_Y291_H288Y],0.937,0.497,0.452,0.475,0.621,0.395,1.03,0.383,0.415,1.24,1.96,0.712,0.435
0.632,0.639,0.418,KINKMYSDRAM,0.53,0.311,0.377,0.417,0.371,0.336,0.624,0.361,0.396,0.419,0.423,0.467,0.345
0.739,0.644,0.664,RQNNSYTCYTA [SLC20A2_Y386_R382Q],1.11,0.597,0.76,0.557,0.659,0.528,0.897,0.58,0.694,0.787,0.476,0.582,0.915
1.58,1.7,1.31,RAILLYEFVGK [NATD1_Y45_V42I_YF],4.95,49.4,65.8,4.88,5.57,32.5,7.5,12.1,19.9,3.76,24.9,2.52,12.3
0.944,0.694,0.652,CFSSEYHFVGG [CTSC_Y345_Y340C_YF],2.64,1.87,1.96,10.4,7.23,0.753,1.11,0.992,1.35,1.61,2.02,1.19,1.85
1.04,0.679,0.569,QLLIEYPPEEV [ZZZ3_Y670_K669E],1.36,0.788,0.933,0.659,0.833,0.671,1.31,0.618,0.534,1.27,0.622,1.03,0.44
1.03,0.687,4.16,IKAGAYDFPSP [CAMK2A_Y230],0.811,0.362,0.416,0.397,0.462,1.43,0.708,0.747,0.419,0.548,4.85,0.551,0.485
0.757,2.15,1.99,KGTAGYTTVAV [RET_Y752_R749T],0.517,0.46,0.362,0.327,0.34,0.313,0.493,0.359,0.357,0.398,0.349,0.448,0.37
0.644,0.82,0.629,RDHFGYRQSVT [CD55_Y245_YF],0.722,0.603,0.33,0.471,0.791,0.427,0.702,0.435,0.489,0.572,0.474,0.538,0.626

SH2 binding enrichment [14],SH2 binding enrichment [15],SH2 binding enrichment [16],Sequence,phosphorylation enrichment [1],phosphorylation enrichment [2],phosphorylation enrichment [3],phosphorylation enrichment [4],phosphorylation enrichment [5],phosphorylation enrichment [6],phosphorylation enrichment [7],phosphorylation enrichment [8],phosphorylation enrichment [9],phosphorylation enrichment [10],phosphorylation enrichment [11],phosphorylation enrichment [12],phosphorylation enrichment [13]
0.709,0.431,0.409,RGEKQYLAAPL [ALOX12_Y295],0.777,0.402,0.461,0.754,0.341,0.365,0.416,0.436,0.545,0.523,0.377,0.504,0.505
0.781,0.629,0.365,ISSLDYISKSK [VAV3_Y294_T298S],0.648,0.38,0.467,0.458,0.587,0.443,0.688,0.431,0.443,0.743,0.482,0.81,0.478
0.714,0.898,2.11,SSQHRYSTPHA [RAF1_Y232],0.682,0.479,0.354,0.364,0.344,0.365,0.53,0.357,0.293,0.403,0.437,0.387,0.433
1.14,0.6,0.605,PMQLPYDSRWE [PDGFRA_Y582],1.05,0.472,0.623,0.523,0.712,0.485,0.854,0.665,0.706,0.821,0.353,0.577,0.893
1.41,1.23,1.25,SFLSFYTSHVQ [NEFL_Y443_P440L_YF],1.21,0.758,0.697,0.531,0.682,0.503,1.3,0.421,0.428,1.1,0.533,0.693,0.462
0.742,0.489,0.541,MNPPPYSQFLS [FGF23_Y154],0.585,0.467,0.44,0.508,0.567,0.711,0.706,0.478,0.511,0.687,0.543,0.536,1.38
0.765,0.72,0.631,AAVDNYCRHNY [HLA-DRB1_Y107_T106N],0.621,0.519,0.669,0.521,0.649,0.427,0.808,0.388,0.461,0.612,0.46,0.502,0.376
0.733,1.2,0.499,RFVSRYIFNRE [HLA-DQB1_Y62_T60S_YF],1.86,1.13,0.744,0.852,0.934,0.976,1.46,1.05,0.79,2.14,0.994,0.867,0.916
0.88,0.634,0.418,NFGTNYRVGSS [CPO_Y278_K273N_YF],0.602,0.417,0.515,0.508,0.424,0.429,0.716,0.43,0.482,0.534,0.42,0.525,0.442
0.758,0.775,1.59,NRDNTYNRVSE [FGA_Y127],0.603,0.472,0.407,0.38,0.469,0.395,0.728,0.425,0.457,0.678,0.329,0.762,0.405
0.831,0.578,0.551,MHFSNYVSKGS [PDGFRA_Y849_D846Y_YF],0.522,0.604,0.439,0.394,0.565,0.367,0.578,0.495,0.457,0.489,0.381,0.406,0.384
0.846,0.896,0.452,YRQNGYIPGSN [PCDHGA1_Y895_V894G],0.485,0.381,0.404,0.399,0.439,0.423,0.547,0.384,0.405,0.467,0.405,0.47,0.422
0.744,0.654,0.406,CDIPRYIVSQL [MAST2_Y461],1.04,0.535,0.577,0.497,0.618,0.454,1.02,0.506,0.482,1.04,0.501,0.816,0.442
0.8,0.864,0.701,YSMGCYEFSLG [HMGCL_Y198_I200F],2.47,1.52,1.37,1.23,1.37,4.95,1.39,2.12,1.25,1.06,3.64,0.864,2.37
0.862,0.54,0.562,KHTLSFVDVGT [SDHA_Y629_Y629F],0.661,0.319,0.495,0.348,0.497,0.371,0.691,0.384,0.364,0.624,0.315,0.451,0.292
0.683,0.467,0.504,YAADYYKLLGN [ROR2_Y646],1.1,0.963,0.863,12.5,9.3,0.634,0.993,0.452,0.808,4.53,1.47,0.769,0.908
